Data published in publication PMC8313286.

Tests used:
[1] = molecular target: RepA, putative replicase of megaplasmid pMP7017 (Bifidobacterium breve JCM7017 (megaplasmid pMP7017)); assay: SEC-MALS
[2] = molecular target: RepB, replication initiator of megaplasmid pMP7017 (Bifidobacterium breve JCM7017 (megaplasmid pMP7017)); assay: SEC-MALS

Substance: RepA, putative replicase of megaplasmid pMP7017 (natural protein)
- percent of total protein in the dimer peak [1]: 67.3%
- percent of total protein in the presumed octamer peak [1]: 15.7%
- percent of total protein in the presumed tetramer peak [1]: 17%

Substance: RepB, replication initiator of megaplasmid pMP7017 (natural protein)
- percent of total sample in the dimer peak [2]: 97%
- stoichiometry N [2]: 2
